Assay results as given in patent US20140220017A1.

What was measured:
mouse IgG Fc (mouse) [1] = assay: QCM; pH 6
mouse IgG (mouse) [2] = assay: QCM; pH 6
human IgG (human) [3] = assay: QCM; pH 6
human IgG Fc (human) [4] = assay: QCM; pH 6
mouse IgG Fc (mouse) [5] = assay: QCM; pH 7.4
mouse IgG (mouse) [6] = assay: QCM; pH 7.4
human IgG (human) [7] = assay: QCM; pH 7.4
human IgG Fc (human) [8] = assay: QCM; pH 7.4

## SpAD (from UniProt P38507 93-153)
Mouse IgG Fc (mouse) [1]
  Kd: 980 nM
Mouse IgG (mouse) [2]
  Kd: 0.773 µM
Human IgG (human) [3]
  Kd: 148 nM
Human IgG Fc (human) [4]
  Kd: 30 nM
Mouse IgG Fc (mouse) [5]
  Kd: 54 nM
Mouse IgG (mouse) [6]
  Kd: 56 nM
Human IgG (human) [7]
  Kd: 22 nM
Human IgG Fc (human) [8]
  Kd: 14 nM

## SpAB (from UniProt P38507 212-269)
Mouse IgG (mouse) [2]
  Kd: 15 µM
Human IgG (human) [3]
  Kd: 350 nM
Mouse IgG (mouse) [6]
  Kd: 380 nM
Human IgG (human) [7]
  Kd: 9 nM
